The target of assay [1] is DosP^FLAG-R97A (full-length DosP with R97A and three copies of the FLAG motif on its C-terminus) (Escherichia coli). Kind of assay: cryo-EM structure.
In assay [2] the target is DosP^WT (wild-type full-length DosP, tag-free after TEV cleavage) (Escherichia coli). Kind of assay: cryo-EM structure.

For the substance “DosP^FLAG-R97A (full-length DosP with R97A and three copies of the FLAG motif on its C-terminus) (enzyme)”, in assay [1], the stoichiometry N (as a rule, the number of molecules, sites or subunits per partner or assembly) is 2.

Substance “DosP^WT (wild-type full-length DosP, tag-free after TEV cleavage) (enzyme)” registered a stoichiometry N in assay [2] of 2.

Values taken from publication PMC11543664.
